# T1: ADAM33 (Homo sapiens, UniProt Q9BZ11)
# T1 construct: made in house; host or cells: Drosophila melanogaster S2 cells
# T1 sequence (Q9BZ11 204-409 limits assumed): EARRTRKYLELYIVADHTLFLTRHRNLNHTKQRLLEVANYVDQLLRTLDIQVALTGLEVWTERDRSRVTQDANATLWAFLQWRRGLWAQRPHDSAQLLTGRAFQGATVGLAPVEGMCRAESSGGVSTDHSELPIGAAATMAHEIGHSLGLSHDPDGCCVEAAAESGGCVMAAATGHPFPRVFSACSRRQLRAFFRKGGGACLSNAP
# B1: TIMP-3: human tissue inhibitor of metalloproteinases 3, endogenous inhibitor of MMPs and ADAMs (protein)
# chain: CTCSPSHPQDAFCNSDIVIRAKVVGKKLVKEGPFGTLVYTIKQMKMYRGFTKMPHVQYIHTEASESLCGLKLEVNKYQYLLTGRVYDGKMYTGLCNFVERWDQLTLSQRKGLNYRYHLGCNCKIKSCYYLPCFVTSKNECLWTDMLSNFGYPGYQSKHYACIRQKGGYCSWYRGWAPPDKSIINATDP
# B2: TIMP4: human tissue inhibitor of metalloproteinases 4, endogenous inhibitor of MMPs and ADAMs (protein)
# chain: CSCAPAHPQQHICHSALVIRAKISSEKVVPASADPADTEKMLRYEIKQIKMFKGFEKVKDVQYIYTPFDSSLCGVKLEANSQKQYLLTGQVLSDGKVFIHLCNYIEPWEDLSLVQRESLNHHYHLNCGCQITTCYTVPCTISAPNECLWTDWLLERKLYGYQAQHYVCMKHVDGTCSWYRGHLPLRKEFVDIVQP
# B3: pro-CAT single chain zymogen form: single chain zymogen form of ADAM33 (R203T/R207S; SEQ ID NO:54) (protein)
# chain: LQGHIPGQPVTPHWVLDGQPWRTVSLEEPVSKPDMGLVALEAEGQELLLELEKNHRLLAPGYIETHYGPDGQPVVLAPNHTDHCHYQGRVRGFPDSWVVLCTCSGMSGLITLSRNASYYLRPWPPRGSKDFSTHEIFRMEQLLTWKGTCGHRDPGNKAGMTSLPGGPQSRGRTEARSTRKYLELYIVADHTLFLTRHRNLNHTKQRLLEVANYVDQLLRTLDIQVALTGLEVWTERDRSRVTQDANATLWAFLQWRRGLWAQRPHDSAQLLTGRAFQGATVGLAPVEGMCRAESSGGVSTDHSELPIGAAATMAHEIGHSLGLSHDPDGCCVEAAAESGGCVMAAATGHPFPRVFSACSRRQLRAFFRKGGGACLSNAP
# modifications: homo sapiens
# What was measured:
# ADAM33 [1] = molecular target: T1, ADAM33; assay: HPLC inhibition assay, ADAM33cat with KL-1 peptide substrate; assay type: biochemical; conditions: at 2 µM
# Procedure: The inhibition dissociation constants (Ki) for inhibitors were determined as follows: an HPLC assay was performed in the presence or absence of inhibitors for 2 h at RT using ADAM33cat (80 nM) and KL-1 peptide substrate (100 μM). For testing tissue inhibitor of metalloproteinases (TIMPs), ADAM33 and human TIMPs were pre-incubated for 1 h at RT. […] Initial velocities were calculated by dividing cleaved product over reaction time. The initial velocities were plotted as a function of inhibitor concentration. For tight binding inhibitors (IK682, TIMP-3), the apparent inhibitor dissociation constants (Ki app values) were calculated by fitting the curve to the following modified Morrison's equation: vi=vo{[(Eo−Io−Ki^app)^2+4 Ki^appEo]^1/2+(Eo−IoKI^app)}/2Eo where Ki^app=Ki(1+S/Km), vo is the uninhibited initial velocity, vi is the initial velocity in the presence of inhibitor at any given inhibitor concentration Io, and Eo is initial enzyme concentration. When the substrate concentration S<<Km, Ki^app is approximately equal to Ki.
# human ADAM17 = human ADAM17 (Homo sapiens, UniProt P78536); assay: Inhibition of human ADAM17 by human TIMPs, fluorogenic pro-TNF-alpha substrate; assay type: biochemical; conditions: ADAM17 1 nM, substrate 25 μM
# Procedure: Inhibition of human ADAM17 by human TIMPs was determined as follows: ADAM17 (1 nM) was pre-incubated with serial dilutions of TIMP-1 (0–4 μM), TIMP-2 (0–1 μM), TIMP-3 (0–0.2 μM), or TIMP-4 (0–4 μM), in assay buffer (25 mM HEPES, pH7.5, 5 mM CaCl2, 0.1 mM ZnCl2) for 1 h at RT, followed by addition of the fluorogenic pro-TNF-alpha substrate (25 μM), K(mca)SPLAQAVRSSSRK(dnp) (SEQ ID NO: 46). The reaction velocities were measured using the GEMINI fluorescence reader at 320/380 nm for 1 h and inhibition dissociation constants were calculated by fitting the data to Morrison equation (TIMP-2 and TIMP-3) or Michaelis-Menten equation (TIMP-1 and TIMP-4) as described above.
# ADAM33 [2] = assay: MCF 12-mer peptide proteolysis assay (HPLC); assay type: biochemical, human; conditions: MCF peptide substrate
# Procedure: A 12-mer peptide (i.e. Ac-LPPVAASSLNRD-NH2; SEQ ID NO: 48), derived from human mast-cell growth factor (accession number NP-038626) was synthesized as a substrate for ADAM33. Reactions were initiated by addition of 200 nM enzyme to appropriate amounts of substrate in assay buffer (25 mM HEPES, pH 7.5, 0.5 M NaCl, 0.1% n-octyl-β-D-glucoside), incubated at 22° C. for 2 h and subsequently quenched with 1% TFA. When inhibitors were evaluated, the enzyme and inhibitors were preincubated at 22° C. for 30 min prior to initiation of the assays. Substrate and products were separated by HPLC using a C-8 reverse phase column (Zobrax 3.5 μm, 4.6 mmD/5 cmL, Agilent, Palo Alto, Calif., 0.1% TFA acetonitrile/H2O). Elution was monitored at 214 nm, and peaks identified by mass spectroscopy. Initial rates of proteolysis were determined using reactions in which less than 10% of the substrate was consumed. kcat/Km values were calculated assuming the enzymes were 100% active.
# Production of ADAM33 and mutants thereof were produced essentially as described in Example 1. Proteolytic assays and methods for determining catalytic rates are essentially as described in Examples 2 and 3.
# Chain of human ADAM17 (P78536 215-824): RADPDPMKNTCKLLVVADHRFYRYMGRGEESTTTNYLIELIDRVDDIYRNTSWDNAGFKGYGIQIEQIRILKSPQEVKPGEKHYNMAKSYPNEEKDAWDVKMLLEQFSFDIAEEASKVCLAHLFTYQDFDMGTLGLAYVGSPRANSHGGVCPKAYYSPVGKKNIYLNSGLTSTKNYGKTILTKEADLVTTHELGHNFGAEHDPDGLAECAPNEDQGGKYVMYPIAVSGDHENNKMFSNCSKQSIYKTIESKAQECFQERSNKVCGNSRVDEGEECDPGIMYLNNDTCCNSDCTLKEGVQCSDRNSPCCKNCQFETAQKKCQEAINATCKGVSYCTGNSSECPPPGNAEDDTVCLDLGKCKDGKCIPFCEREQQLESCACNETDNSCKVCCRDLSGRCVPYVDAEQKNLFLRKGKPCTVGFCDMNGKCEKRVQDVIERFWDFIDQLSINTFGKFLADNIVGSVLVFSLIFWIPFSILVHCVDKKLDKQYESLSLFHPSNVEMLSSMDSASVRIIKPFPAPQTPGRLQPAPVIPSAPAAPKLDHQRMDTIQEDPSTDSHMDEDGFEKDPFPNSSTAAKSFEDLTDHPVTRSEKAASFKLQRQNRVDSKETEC
Molecule,inhibition of ADAM33 activity (ADAM33 [1]),inhibition of human ADAM17 activity (human ADAM17),catalytic efficiency relative to CAT domain (ADAM33 [2])
"TIMP-1: human tissue inhibitor of metalloproteinases 1, endogenous inhibitor of MMPs and ADAMs",no inhibition,weakly inhibited,
B1,,inhibited,
B2,,inhibited,
B3,,,no significant difference

# — patent US7208311B2, “Catalytic domain of ADAM33 and methods of use thereof” (Schering Corporation, priority 2002, dated 2007)
